Test results taken from the DeepSol protein solubility set.

assay: soluble on expression in E. coli; label from the status in PepcDB or PDB records

Soluble on expression in E. coli, not soluble:
MYPNISDCGVIGDTRTAALVNSNGSIDYCSLPYFDSPTVFAALLDERKGGYFSLKPAEAFSSRREYLPDTCILCTSFTTRNGKAALYDFMPHQDDKTRERTQGIHRCIRVDEGRVKFTLTLKLLTFQQTGAIVAAATTSLPESIGGKRNWDYRFTWIRNASFTLKAFFALSHTSEADTFIRWLHDTYRKNGSRGFSQKLNAFVQRFDTEILDASLLIMPLVDFLPVTDQRIQGTIEACQTHLMDNGFIRRYRADDGLEEDEGGFLLCNFWMIECLALSGKSAEAEKLLGITMAAANDLGLFSEEYDPYSREMLGNFPQAFSHIGYINAAATLIDSKLPLANPLEHHHHHH
SAFQKAASLLGAPIGHDFCVISLSDLMTPWERIERRILAAAQADFVTAVYNPKSDGRYWQIYRLREIFLREGRSPETPVGYVRQAGREEQEIHITTLAAFDPETVDMFTVVLIGNSQTY
MSFITAFRERVFIASGDLIRTFRISEETELKNFISWSKINPERIQKPSFDIEKELKAVEKRVILCLAHSNVLTTHGRRLVAVGTNEKQIHVFEYFVNDKGDIVTAEHIVTSVVPKAPTAIVFDKEDAYVVVGDRAGDVHRFSVLNGSAIEMAGAISMILDVAFSPDGKRLLMADRDEKVRALRYPATSVIDSFFLGHTEYVKTLAVQDNDSLWSSGGDKNLYNWSIAKCSAPRRTLDLSQFDAPIRKISINLQHKKIAVIFEKIETVVIVDLNQESLQTTSVSIVGESQCLDIASTKDYFAVLGRSTVHLIDLNNMEQKFVPIDEELTITLTSTNDAIDNLFKNVTHNNQQEYEKRKADKFEQIEKKKRRLNEDINGDDGEGPGPSNS
MGRLDGKVIILTAAAQGIGQAAALAFAREGAKVIATDINESKLQELEKYPGIQTRVLDVTKKKQIDQFASEVERLDVLFNVAGFVHHGTVLDCEEKDWDFSMNLNVRSMYLMIKAFLPKMLAQKSGNIINMSSVASSVKGVVNRCVYSTTKAAVIGLTKSVAADFIQQGIRCNCVCPGTVDTPSLQERIQARGNPEEARNDFLKRQKTGRFATAEEIAMLCVYLASDESAYVTGNPVIIDGGWSL
MIKFSATLLATLIAASVNAATVDLRIMETTDLHSNMMDFDYYKDAATEKFGLVRTASLIEQARAEVKNSVLVDNGDVIQGSPLGDYMAAKGLKEGDVHPVYKAMNTLNYAVGNLGNHEFNYGLDFLHKALAGAKFPYVNANIIDAKTGKPMFTPYLIQDTRVVDSDGQIHTLRIGYIGFVPPQIMTWDKANLNGKVTVNDITETARKYIPEMRAKGADVVVVVAHSGLSADPYQAMAENSVYYLSQVPGVDAIMFGHAHAVFPGKDFANIKGADIAKGTLNGVPAVMPGMWGDHLGVVDLVLNNDSGKWQVTQSKAEARPIYDAVAKKSLAAEDGKLVSVLKADHDATREFVSK
MLLHTFFDDSKTSVEETPRMFVARLFGSPVSTSIIPTEKESINNNNQETAKMPLDPMDSLWMSKAPQVSDLVVQPNVTFKAVTGGSPHSPSASIPIAGADDSIRPDYDTDCLWKPPTRSARVQKERTISMDSTDSEIGALGGRKFSTNEGASPAPTSPIDAQPRARRMSISEMLFGSSPKSFSWGMESNTTNTTTTSNSGGGDIGERKMSITDDPRFKDFMKHQSKIIGDDGISAAGFKRSNYMKD
MKSPQAQQILDQARRLLYEKAMVKINGQYVGTVAAIPQSDHHDLNYTEVFIRDNVPVMIFLLLQNETEIVQNFLEICLTLQSKGFPTYGIFPTSFVETENHELKADYGQRAIGRVCSVDASLWWPILAYYYVQRTGNEAWARQTHVQLGLQKFLNLILHPVFRDAPTLFVPDGAFMIDRPMDVWGAPLEIQTLLYGALKSAAGLLLIDLKAKGYCSNKDHPFDSFTMEQSHQFNLSVDWLKKLRTYLLKHYWINCNIVQALRRRPTEQYGEEASNEHNVHTETIPNWLQDWLGDRGGYLIGNIRTGRPDFRFFSLGNCLGAIFDVTSLAQQRSFFRLVLNNQRELCAQMPLRICHPPLKDDDWRSKTGFDRKNLPWCYHNAGHWPCLFWFLVVAVLRHSCHSNYGTVEYAEMGNLIRNNYEVLLRRLPKHKWAEYFDGPTGFWVGQQSRSYQTWTIVGLLLVHHFTEVNPDDALMFDLPSLKSLHQALHLEHHHHHH
MENELQDFPEPNYNVHAFYYVWYGSPQFDGKYVHWDHPLLPHWDPKVASSYSTGRHQPPEDIGANFYPALGPYSSRDPAVLEEHMRQLRMAAVGVLAVSWYPRSMKDDNGEEIDSLLPLILDAADKYQLKVLYNLYVFKNVICINKYV
FCKELPRPELPYSEMSAIGSLIQALPASCALHLANSSAVRYAQLYSLPDTVEVCCNRGTSGIEGSLSTAIGYAAASKKLNFVVIGDLSFFYDMNALWNNHFGSNLRILLLNNGGGEIFHTLPGLEMSGTSHRFVTAVHKTSAKGWAEERGFLYQEVQDEKQLDEAMKTFTQPELLTQPVIMEVFTNKNKDARILKDYYHQLKN
MFMFEKPHGMRDTLPGLYETKKKVRRSLTDLIDKWGYQFMETPTLEFYDTVGVQSAIEEQQLFKLLDQDGKTLVLRPDMTGPIARVAASKLLKHGHPLRVGYAANVFRAQEREGGRPAEFEQVGVELIGDGTTSADAEVIALVVGALKNAGLASFKIAIGHAGIADALFVEVLGNVERADVLRRFLYEKNYVGYREHVKSLPLSSIDKSRLLELLELRGGIEVCGRAEEIVDSAQGKSVVDELKALWDILEDYGCTENVRLDLNMVSHMSYYTGILFEVYAENVGFVIGSGGRYNKLLGHFDSPAPATGFGLRIDRLIEALHMKDEPCEIDAVIFSKEQRAQAIAYANEERMKGNKVVLQDLSGIENIDQMTKSFANVTYFIGARKEEQNG

Soluble on expression in E. coli, soluble:
MSLKILLMLLCVSVLGCSKNSVESEKPVDVLLIGGGIMSATLGTYLNELEPGWTIEMVERLDKVAEESSNGWNNAGTGHSAFCELNYTSEAADGSMDISKAVAINENFEISKQFWAYQVDRKVLNDPKSFINNVPHMSFVWGDDNVAFLKKRHAALQHSSLFRGMEYSEDPEQIKQWVPLVMEGREPGQKIAATRMSIGTDVNFGEITRQLVGSLSAKDTFKLRLQHEVRDLKRNDDNTWTVTMADLANGDKETSVKARFVFIGAGGGALKLLQMSGIPEAEGYAGFPVGGSFLATTNPDVVKRHLAKVYGKASVGSPPMSVPHLDTRMIDGKPVLLFGPFATFSTKFLKNGSLWDLPGSVTSGNIGPMFNAGIDNFDLSQYLIGQLMLSQDDRMASLREYFPEARDEDWKLVQAGQRVQIIKKDAEKGGVLQFGTEVVTAADGSVAALLGASPGASTAAPIMLSVLEKAFKDKVATPEWQARLKEIVPSYGRKLNNDIELTNSTRAWSSERLQLIHVPVQEGGSHHHHHH
MTQTYNADAIEVLTGLEPVRRRPGMYTDTTRPNHLGQEVIDNSVDEALAGHAKRVDVILHADQSLEVIDDGRGMPVDIHPEEGVPAVELILCRLHAGGKFSNKNYQFSGGLHGVGISVVNALSKRVEVNVRRDGQVYNIAFENGEKVQDLQVVGTCGKRNTGTSVHFWPDETFFDSPRFSVSRLTHVLKAKAVLCPGVEITFKDEINNTEQRWCYQDGLNDYLAEAVNGLPTLPEKPFIGNFAGDTEAVDWALLWLPEGGELLTESYVNLIPTMQGGTHVNGLRQGLLDAMREFCEYRNILPRGVKLSAEDIWDRCAYVLSVKMQDPQFAGQTKERLSSRQCAAFVSGVVKDAFILWLNQNVQAAELLAEMAISSAQRRMRAAKKVVRKK
MSLPEDYWSAKDYQRNASFVPKLTKDIVKRINLSSSDELLDLGCGDGVLTNELVSQCRRVVGIDASPDMIKAARELGLNAYVIPGEKLLDASEIPSESFDVVFSNAALHWIMRQPKNRPIVMKGVSRVLRTKGRFVAECGAFGNVSEVVGSIYSILLALGATKEQIDQANPWFFGSEDDYTRMLEEAGFHVEYVENISRPTLLNKDVREWLDTFAQHFYHAFPQWKDIIRETVYNALLVTDCRSDGKWFLQYRRLRFVAHKEEGHHHHHH
NLLEEESAVLGQAVTNLMLSGDNVNNKNIILSLIHSLETTSDILKADVIRKTLEIVLRYTADDM
SNAAKPLPKEMEDFVQSSGENGVVVFSLGSMVSNMTEERANVIASALAQIPQKVLWRFDGNKPDTLGLNTRLYKWIPQNDLLGHPKTRAFITHGGANGIYEAIYHGIPMVGIPLFADQPDNIAHMKARGAAVRVDFNTMSSTDLLNALKRVINDPSYKENVMKLSRIQHD
MSLKLITCDLDGTLLNSSMEISDANVQAIKRAQENGIEFMVASGRAPHESQPMLKEYWIDCSFINLNGGLVFDTAGNLIVKNPLKLETAKKICRLLKKEGFYFELVTSNHVYSEDLSQRITNVAHLMVELNPMLTFKEAVLVSASKPAIVSIQQVPSYEDLMDEPGTEVMKILVFDSRGQYAFTDVIKKIEEIDKLSITSSAADNIEINAASAQKGQSLLDYAAAKGIKREEIAAIGDNLNDESMIQAAGTGVAMGNAVPQIKTIASFVTKSNNEDGVAWAIDKIIADNQKEGHHHHHH
STTGIIMENVTAFWEEGFGELLEKVQQSNGDRKHSSDENNVSFSHLCLVGNPVLKNINLNIEKGEMLAITGSTGSGKTSLLMLILGELEASEGIIKHSGRVSFCSQFSWIMPGTIKENIIFGVSYDEYRYKSVVKACQLQQDITKFAEQDNTVLGEGGVTLSGGQRARISLARAVYKDADLYLLDSPFGYLDVFTEEQVFESCVCKLMANKTRILVTSKMEHLRKADKILILHQGSSYFYGTFSELQSLRPDFSSKLMGYDTFDQFTEERRSSILTETLRRFSVDDSSAPWSKPKQSFRQTGEVGEKRKNSILNSFSSVRKISIVQKTPLCIDGESDDLQEKRLSLVPDSEQGEAALPRSNMIATGPTFPGRRRQSVLDLMTFTPNSGSSNLQRTRTSIRKISLVPQISLNEVDVYSRRLSQDSTLNITEEINEEDLKECFLDDVIKIPPVTTWNTYLRYFTLHKG
MCNTPTYCDLGKAAKDVFNKGYGFGMVKIDLKTKSCSGVEFSTSGHAYTDTGKASGNLETKYKVCNYGLTFTQKWNTDNTLGTEISWENKLAEGLKLTLDTIFVPNTGKKSGKLKASYKRDCFSVGSNVDIDFSGPTIYGWAVLAFEGWLAGYQMSFDTAKSKLSQNNFALGYKAADFQLHTHVNDGTEFGGSIYQKVNEKIETSINLAWTAGSNNTRFGIAAKYMLDCRTSLSAKVNNASLIGLGYTQTLRPGVKLTLSALIDGKNFSAGGHKVGLGFELEALEHHHHHH
GSHMEEPSDLEELEQFAKTFKQRRIKLGFTQGDVGLAMGKLYGNDFSQTTISRFEALNLSFKNMAKLKPLLEKWLNDAENLSSDSSLSSPSALNSPGIEGLSERRKKRTSIETNIRVALEKSFLENQKPTSEEITMIADQLNMEKEVIRVWFCNRRQKEKRINPPSS
MLQISHLYADYGGKPALEDINLTLESGELLVVLGPSGCGKTTLLNLIAGFVPYQHGSIQLAGKRIEGPGAERGVVFQNEGLLPWRNVQDNVAFGLQLAGIEKMQRLEIAHQMLKKVGLEGAEKRYIWQLSGGQRQRVGIARALAANPQLLLLDEPFGALDAFTRDQMQTLLLKLWQETGKQVLLITHDIEEAVFMATELVLLSSGPGRVLERLPLNFARRFVAGESSRSIKSDPQFIAMREYVLSRVFEQREAFS
MSKIDFHTHYLPTSYVEALKRHVPGDPDGWPTPEWTPQLTLNFMRDNDISYSILSLSSPHVNFGDKAETIRLVEAANDDGKSLAQQYPDQLGYLASLPIPYELDAVKTVQQALDQDGALGVTVPTNSRGLYFGSPVLERVYQELDARQAIVALHPNEPAILPKNVDIDLPVPLLGFFMDTTMTFINMLKYHFFEKYPNIKVIIPHAGAFLGIVDDRIAQYAQKVYQVDVYDVMHHVYFDVAGAVLPRQLPTLMSLAQPEHLLYGSDIPYTPLDGSRQLGHALATTDLLTNEQKQAIFYDNAHRLLTELEHHHHHH
